Results published in patent publication US20120034651A1 (JAPAN SCIENCE AND TECHNOLOGY AGENCY, published 2012).

Target: the molecule itself
Experiment: not described in this filing

B1: 36-38A TCL1 (other, human, UniProt P56279 1-114, looked up)
chain: MAECPTLGEAVTDHPDRLWAWEKFVYLDEKQHAWLAAAIEIKDRLQLRVLLRREDVVLGRPMTPTQIGPSLLPIMWQLYPDGRYRSSDSSFWRLVYHIKIDGVEDMLLELLPDD
- binding result: no binding
